From the domain aggregation screens of Martell et al. (2025)

Assay: soluble fraction after stress (log2 fold change); higher = more stays soluble; pooled small domains, quantitative proteomics
Conditions: stress: 50 degC
In short: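 Quantitative proteomics served as the high-throughput read-out for pooled custom libraries of small protein domains. Each was stressed at 50°C. Aggregation propensity is expressed as the base-two log fold change in soluble protein after stress. A higher value means a larger share of the protein remains in solution.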

| Sequence | soluble fraction (log2) |
| --- | --- |
| HMNDQLIYSDFIRQVQDGQITEVTISGLNIAGTRSDGSVFNTLRPYIEDPKLIDDLLSHNVRIQGAE | -0.2 |
| HMLSVRERMSAILVSLEGERYADFTGLFDPTEGKGGVTVTFLAILELLKESMIDVVQNELYGPIHVRAA | -0.368 |
| HMKMVEIDYGKFLTMLDTGKVKSVEIENNRIAINPSSSKDKNIYITGRMDDPELVDRLKNAKVEFTKVIP | 0.261 |
| HMSEYVIVTGEKVNLRVGPGMDYEIAGQVVKGDKLELLASEGDWSKVKTGSGSIYYISSSLVQKA | -0.238 |
| HMDTRSSARKALDAVNLLLETYGAKAYQHSYEIAGRRQQFQTPGDFMAFRSRLMAEVATEENAARINA | 0.152 |
| HMSGEMGIIVAKRLPIRSEPDELATRAFVLKAGTRVKIVKHLNGWLEIVHDGKAGYVQDLEVYVRVIG | -0.524 |
| HMGVMNEYEELRDRYLTGQIWKIGDLVEAKGIEGKIIQRGTNYITFNDSQGKVHKAWLHEIKV | 0.184 |
| HMPQGFEDLTEREREVLTLIAEGRTNQEIADALVISIKTVNRHRENIMAKLNLHSRVELVRYAIAQGLI | -0.474 |
| HMSTPVPIEGQPTENLNLRDQPSTSGKILTTIPKGKTVTILSEKNANGWYKVSYNGKTGYVSGSYFKVTK | 0.317 |
| HMLKIAENIYQRRKEKNITQEELADFMMVTKASVSKWETGQSYPDILLLPKLATFFNVTVDELIGYEPQ | -1.2 |
| HMQEPVHFTRRERQVLSLILSGQATAEIAKTLGIANATVTTYKKSLYSKSGTNSLSRLLIWAMVRR | -0.27 |
| HMKFPIITAKQDSDGKFYWAQTTDKGKTYTFILDGDGKKFPIGGTMPDVKINENGYWSVNGSSTGVLANDL | 0.0311 |
| HMARAESYGDIARLEQLLDEHANIAALDPGKLPAVRQQIWTLMRAARMDHDLGLAERPEDDSFDDMLLHV | 0.133 |
| HMAMPQPVARALHRLGQDISAARRMRRLSQEDLAQRIGTSLSTVRRMEDGYPGTALHTFLRALHML | -0.261 |
| HMHKKQEVQDSIDAAEEFMRASGVPAELITSKRAYAVKAIYADAVDKGTPDEIVKKDGMIVALISQMRS | 0.267 |
| HMKLSKKVTDFLAQMPSKSISPKMLANNLGLADDAGDYKHLLKTIAQLEESKAIEVTAAGNIALPQPE | 0.0358 |
| HMKTLLSMNIKNLRKKKNMTLEELAEKVGTSKQTIQRYESGKISNIPSDKIELLAKYLDTTPAKLMGW | 0.441 |
| HMDEYTAVDSRLDLELAMKRLKPEEAEVLRLVFDYGLPQRAIAERLGVSQMSVSRMQRRAIGKLKRWLSDN | -1.08 |
| HMYYIITNGKYWVIENPIRPGEYMESTKSSNAKQFTFKQAKNLLNARSKKLGWIRNGYSMVGED | -2.22 |
| HMSDAGMNQIGDMFRAPDLMAKLAMNPATREYVSQPDFLAMMEEVKRNPSALNNHLRDPRMMNVLSVAM | -0.115 |
| HMTPVSQIATKDIEEKIDSLSDEYKDPFILHFKGFKYKEIADQLDIPIGTVKSRIFIARKKLIDLLPDY | -0.115 |
| HMQMTTPQMVPLFTDLSVDDSASIIKDLERQAVPYQIKSDGAIIMVPKDKVTRLRMKLAESGLPK | 0.25 |
| HMETSVDEVYKKIQAYIEAEDKHKPLSDQKLAEQLQSDGLKVSRRTVAKYREKLNIASSSKRKR | 0.358 |
| HMDTFSVAIGTKTPDGSSVGEVKTISRDELLLLEDEVAEDPTKEIIFTGGTKDSAQAALDGWIDYNTNLAS | 0.00318 |
| HMVSLEEIINDLTSRIQTAVKMRFSDFVQNRKERVGVIVSFLGMLELVKQGIIDIKQEGHFADIEMETA | -0.296 |

| Sequence | soluble fraction (log2) |
| --- | --- |
| HMHGSSSTVPPVKGLSFEQARLTLAENDLTVEISDSIYDRNARPGTVVESWPRAGSVVKQGRQVYVTVTAF | -0.922 |
| HMTTTYTVPKVTGMTLEEAREDPDVVGRFTIVEGEKVTSDTVPVGQIVSQEPAAHRQVGEDGLTITVNIS | 0.289 |
| HMATPKYMELVRWINEQIESKNLVPGQKMYSENTLKEMFGVSRQTVRHAIGVLENEGVIRRIQGSGTYIN | -0.829 |
| HMTITPEVIVNHFKNLDLFFTKNGNYYEFKKKGTENILFKYGIYKQKPNIFVKIQRYPISSLSDLERIPI | -0.844 |
| HMAQLPADLSKVKSSQISDQQLTQIAQQAKNSGQSEQAVLQELKQRGLPDTEIQALGARISGLMQ | 0.137 |
| HMAKSKYETHVLPNLDKIIKWAKAGATAKEIAANLHIAYSTFRKYLDEGQEGDERYAALSAAFAQA | 0.321 |
| HMDTPPGLSPEEQAIIDIITTRGDATINELTASIDIPTPRLMGMLVDMEFRSLIAAIPGGRYRI | -1.16 |
| HMRVDLVQRLARHGLSPRQSAVAGGVLRGLDNGEISRQLYIAEQTVKDHLHEIYHRLGVHTRTELLIKVLG | -1.6 |
| HMKDLTAIKGVGEFFAKKLSQAGYQSITNLTDVNAKRLQADTGIPLPIAARIIKEAQSLIAET | 0.206 |
| HMPTNSDRLIGSDGVVSSKIDNLQGTGKVYISGLTWSARTIDGSEAEEGDIVTVEKIEGATLYVTKR | 0.0599 |
| HMDPEIADAVNTIKKYLESHYSEVITRKKIEELVHLNQDHINREFKKQTGYTLMEYVQHYRILMAKKMLRV | -0.243 |
| HMNDTLGVNIKRLRKEKGMTQDEVAKAVYTTRYNILRYESGKMTPSSEVIERLEKALGVPTGSLAQ | -0.332 |
| HMEYPNEIARIFNQIPELNVSAVARTLGINKSLLSSYIYGMKKPSPERTEEIKSAIRKIGQNMLAV | -0.421 |
| HMDLTPEEQMDLYRLLDSLPTEERTYLILHYFEERSFPEMAEILSMPEAKLKSRFYRILHRLRAHL | -2.56 |
| HMKRRSVIVSVVRAQVRQSADEAAAVVFEAEKNVSLDYLETMPGGWVKVRHRDGQTGFVRVNQIWG | -0.807 |
| HMSTINGIEKYLSSGLIPYIGPKTAKRIVEKFGLDTLEIIQYNPERLKEIEGIGDKKLKKIVEAFEEQG | -0.102 |
| HMLDPKVFVGKAGINEGIAKLLLQAFDKADLVKVRFTAERDVMETQMQELARLTGSEVIGNVGRTATF | -0.00291 |
| HMQSVKTQPLRDWLLAHFDKPYPDDEDKVRLAEASGMTRAQVGNWFINARVRTWRPMVLDLGEEIERESV | -0.649 |
| HMEAISIYPNPTDNELHLSTSVQEVRIYNMYGIEVTRAANTDRLAVSHLPKGVYLVHADGAVLKMIK | -1.26 |
| HMTRQRQLIYNIIQRADDHPTAEMIYARAKAEMPSIAFGTVYRNLKLMVDAGEILHIPVAGEPDRYDK | -1.98 |
| HMFDLSQRQEQIIEIVRKHGPITGEKIADLLYVTRAALRPDLAILTMSGYLEAKPRVGYTYK | -1.2 |
| HMNTISYTELIKQIDEGNVEKVEMTVGSTSVKVKLQGQEEEKKAIVPNTQAFVELIQEKTLEGNQIDLKQN | -0.0333 |
| HMQLDLSDPSKNKLDSIVSLPIKSLKAVEANGEILFMSENGRFVLRGQLYDIWYKDTLDTSAQIQDAATRI | 0.109 |
| HMTEKIEWYKEVLELEPNSKVFFPLARMLAEEQRFDEAVAVLEHGLERHGEFLEARLFFIELLHET | -3.69 |
| HMGAPVIYELTAESAAGQRIDKYLSGQLADLSRSYLQKLLKDGGVEVNKKPVKSNYKLSEGDQIRLEVPEA | 0.207 |

| Sequence | soluble fraction (log2) |
| --- | --- |
| HMRIEDTMDYINKIKEKLKNNGGVITSKEFTRSNIPTIYLTRMVETGELIRIDRGIYINSSG | -0.538 |
| HMDPALSPAEQKIWDLLAAGETHIDDLVRASGLPVATVNSALVMMEMKEVISQVAAKTYRRNRRN | -0.0324 |
| HMSKQLGFKIKTARRKLNISQGDLSKKLEISPSYLNLIESGKRKVSTDLLMKASEILNLDLKKL | -0.281 |
| HMISEGDIIKGTVIDVNEEEVILDLKYYAQGVIKAENLSNDPDFLAAGKISVGDEIEATVIKMDDGEGNIE | 0.0355 |
| HMRHSLAAALTELRRLAALDLGDFFRFEYVSHTDSLGGKQQAYTEGIRVSFGVYLGVNKKDRLNVDPVV | -3.44 |
| HMSGILINGELYKPGEQMSLKQRLSIQARIQMQGEDTVKPEMLKDFYNSGGPLSKEESSEYMKSQN | -0.153 |
| HMIVVMARETSTDDLEAIRERIESRGMVAQINLGVERTVIGVMGSIPPDFKDEMELMNGVVEVVMISK | -0.408 |
| HMNMLGEQVRNIRKSRGFTLKALAEQTGLSIGYISQIERNLTDPSLSTLRKISAALDVPTYLFMG | -1.55 |
| HMPAGWIPARIRLADYPQLRSLAWHVQGIDTLTPTEALDIYERNARHLDAQAMSAQEQDLLASLRLALS | -0.839 |
| HMDEKVTIPSVSGLLLSEAKTKLVDAGLTVETVYDDESKEAKDTVLSQSPLQYGKVDKGTVVTLTVSSGKG | -0.043 |
| HMDVSVPDVTGTRLDRAQSLLEAQGLTLGKVEEFFHATEPAGIVYDQEPRPGTRVDEGTAISVSVSKGPEA | 0.0552 |
| HMPSLILADEPTGNLDSRNSSEVIALLKNASKRYAQTIIMITHNRSIAQSADRVLQVSDGVLTDMG | 0.0494 |
| HMGMTNRIKELRKAKGYRQEDLAAALGVSRQTIIAVENNKYNPTLELAMKLARHLQTTVEELFQL | -0.758 |
| HMTSLQDLLEELRVIRETLTGSQVLSDMQLFSQLRNLGDIKAALTRMQDNPAAARMVGEVDKLLETMFAS | -0.955 |
| HMGEQETILKGDVNRDGVVDVNDVTHLQIHISNDDKNPLIDVTNKAWFDAADMYGDGKLDILDATALQIYI | 0.11 |
| HMIETIQVPRAFNDWHEQADKTKSVFEVYAEIEASENEKLIAWVRNNQNEFAKIWLGALIPELE | -1.39 |
| HMTNIQFINLKMTDNHPWIHQYIKDIILPPQTRIVMIKRNDIKTIPKGERRIEKDDELILSAFESQT | -1 |
| HMKPGYVIQVNGTVTKIQSGLVYVKTPAAQYTLMRKYAPADAAVGDRVSLWINEEGMVIDVHGK | -0.0092 |
| HMTDEYYSYIGKTGTTITVLRPAGIAEVEGERLNVVSEGEFIRKGAAILVKEVEGARILVEEVN | -0.381 |
| HMGDTPVDFSEFIRWVDTGVVDRVELTGNEIVGTSSSGERFSTYAPPQYEGLGNKLIERDIVVVATAA | -0.164 |
| HMREKPRETFQRIAEKVGQTLRKGPVRVQQMDLLFSESREQVMEVLRAMAESGEIRIQDDTLHWNGHT | 0.311 |
| HMVMATPHNTAKAGDIAKTVIMPGDPLRAKYIADNYLDNAVQFNVVRNIYGYTGVYRGTDISVMASGM | 0.128 |
| HMQISDNTILEDAVSRIIDENPKSVSDYFQGKEAVVGFFIGQIMRETKGTANPKIAREIVISHLEAI | -0.778 |
| HMLTSIDQMLKLAMPDSDITVSKMNGLILLTGTVKAPEDAAEAERLVQAFSAPPPGQPPVTVVSRLRTA | 0.0549 |
| HMEENNIVIYITGAVKKEGIYEIKENSRISDAIEAAGGLLENANIKDINLAYIIEDGVKIYIPTNEEVNK | -0.192 |
